Measurements published in patent US9102763B2.

Biological target: T1, Syndecan-1
T1 sequence (P18827 whole entry, species assumed, looked up): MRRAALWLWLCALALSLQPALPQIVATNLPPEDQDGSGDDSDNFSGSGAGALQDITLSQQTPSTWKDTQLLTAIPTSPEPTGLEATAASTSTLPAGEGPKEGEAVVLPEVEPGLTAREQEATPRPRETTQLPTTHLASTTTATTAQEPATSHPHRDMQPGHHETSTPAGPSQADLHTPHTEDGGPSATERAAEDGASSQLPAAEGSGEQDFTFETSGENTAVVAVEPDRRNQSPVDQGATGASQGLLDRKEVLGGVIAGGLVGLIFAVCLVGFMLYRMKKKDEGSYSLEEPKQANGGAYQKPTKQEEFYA

B1: lacritin (free lacritin released from Lac-ELP by thrombin cleavage) (ligand)
chain: MEDASSDSTGADPAQEAGTSKPNEEISGPAEPASPPETTTTAQETSAAAVQGTAKVTSSRQELNPLKSIVEKSILLTEQALAKAGKGMHGGVPGGKQFIENGSEFAQKLLKKFSLLKPWAGLVPR
B1 was tested, and the minimal therapeutic concentration (β-hexosaminidase secretion, rabbit LGACs) was 10 µM.
